The test addresses C1-Esterase (UniProt P09871). Kind of test: cell-based or functional assay.

Chain of C1-Esterase (P09871 16-688 limits assumed): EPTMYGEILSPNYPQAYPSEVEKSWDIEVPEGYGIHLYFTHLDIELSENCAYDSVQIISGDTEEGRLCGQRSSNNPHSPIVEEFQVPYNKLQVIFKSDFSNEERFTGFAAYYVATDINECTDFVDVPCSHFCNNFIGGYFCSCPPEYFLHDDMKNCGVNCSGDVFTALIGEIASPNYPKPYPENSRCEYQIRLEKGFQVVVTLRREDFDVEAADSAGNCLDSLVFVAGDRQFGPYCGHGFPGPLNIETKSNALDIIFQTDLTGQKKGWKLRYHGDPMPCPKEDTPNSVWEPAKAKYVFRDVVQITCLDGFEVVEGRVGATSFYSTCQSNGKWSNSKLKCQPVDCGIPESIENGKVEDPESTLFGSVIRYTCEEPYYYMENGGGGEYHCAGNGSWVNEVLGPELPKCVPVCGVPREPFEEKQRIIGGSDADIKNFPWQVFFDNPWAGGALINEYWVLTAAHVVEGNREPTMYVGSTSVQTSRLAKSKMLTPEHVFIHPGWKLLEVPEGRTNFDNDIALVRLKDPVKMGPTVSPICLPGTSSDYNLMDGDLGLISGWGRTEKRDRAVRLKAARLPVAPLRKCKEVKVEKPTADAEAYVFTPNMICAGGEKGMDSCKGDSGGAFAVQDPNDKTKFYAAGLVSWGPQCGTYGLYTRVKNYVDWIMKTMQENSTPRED

For “Mal-PEG-C1 INH (C1 esterase inhibitor PEGylated with 40 kDa maleimide mPEG) (from UniProt P05155 23-500)”, the in vitro C1 inhibitory activity was determined as 6.1 U/mg and the in vitro C1 inhibitory activity, percent of native C1 inhibitor stood at 86%.

“Mal-U-PEG-C1 INH (C1 inhibitor PEGylated with branched 40k mPEG-maleimide) (from UniProt P05155 23-500)”: the in vitro C1 inhibitory activity is 3.3 U/mg and the in vitro C1 inhibitory activity, percent of native C1 inhibitor is 47%.

The values above are taken from patent US20140309175A1.
